From patent US20260201389A1 (NATIONAL UNIVERSITY OF SINGAPORE, published 2026)

Columns and labels:
[1] = molecular target: T1, SMAD2 protein (mouse, UniProt Q62432 2-467); test: co-immunoprecipitation with anti-SMAD2 antibody from TGFβ1-stimulated mouse WT primary cardiac fibroblasts, western blot (FIG. 16D)
T1 construct: Endogenous protein in cell lysates

[2] = molecular target: T1, SMAD2 protein; test: co-immunoprecipitation with anti-FLAG antibody from NIH-3T3 lysates, western blot (FIG. 16C)

T1 sequence (Q62432 2-467 limits assumed): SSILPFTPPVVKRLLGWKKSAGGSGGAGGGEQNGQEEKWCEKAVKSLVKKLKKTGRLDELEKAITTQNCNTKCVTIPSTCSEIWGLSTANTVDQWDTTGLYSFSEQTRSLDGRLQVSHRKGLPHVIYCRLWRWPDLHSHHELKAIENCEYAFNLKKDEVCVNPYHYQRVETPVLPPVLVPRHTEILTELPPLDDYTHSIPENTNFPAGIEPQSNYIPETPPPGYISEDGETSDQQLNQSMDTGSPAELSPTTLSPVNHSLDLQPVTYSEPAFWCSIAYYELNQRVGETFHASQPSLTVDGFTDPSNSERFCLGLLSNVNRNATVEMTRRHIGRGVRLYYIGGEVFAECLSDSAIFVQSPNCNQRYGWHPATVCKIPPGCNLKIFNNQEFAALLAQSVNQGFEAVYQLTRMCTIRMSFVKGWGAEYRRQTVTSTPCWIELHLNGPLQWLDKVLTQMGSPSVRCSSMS

| binding result [1] | binding result [2] | Binder |
| --- | --- | --- |
| no binding |  | WWP2-C, endogenous in mouse WT primary cardiac fibroblasts (enzyme, UniProt Q9DBH0 440-870, looked up) MIQEPALPPGWEMKYTSEGVRYFVDHNTRTTTFKDPRPGFESGTKQGSPGAYDRSFRWKYHQFRFLCHSNALPSHVKISVSRQTLFEDSFQQIMNMKPYDLRRRLYIIMRGEEGLDYGGIAREWFFLLSHEVLNPMYCLFEYAGKNNYCLQINPASSINPDHLTYFRFIGRFIAMALYHGKFIDTGFTLPFYKRMLNKRPTLKDLESIDPEFYNSIVWIKENNLEECGLELFFIQDMEILGKVTTHELKEGGENIRVTEENKEEYIMLLTDWRFTRGVEEQTKAFLDGFNEVAPLEWLRYFDEKELELMLCGMQEIDMSDWQKNAIYRHYTKSSKQIQWFWQVVKEMDNEKRIRLLQFVTGTCRLPVGGFAELIGSNGPQKFCIDRVGKETWLPRSHTCFNRLDLPPYKSYEQLKEKLLYAIEETEGFGQE |
|  | no binding | FLAG-tagged WWP2-C (enzyme, Expressed from a plasmid in NIH-3T3 mouse fibroblasts; The position of the FLAG tag is unknown; also called WWP2-Flag isoforms; C-terminal isoform; not shown: FLAG tag) MIQEPALPPGWEMKYTSEGVRYFVDHNTRTTTFKDPRPGFESGTKQGSPGAYDRSFRWKYHQFRFLCHSNALPSHVKISVSRQTLFEDSFQQIMNMKPYDLRRRLYIIMRGEEGLDYGGIAREWFFLLSHEVLNPMYCLFEYAGKNNYCLQINPASSINPDHLTYFRFIGRFIAMALYHGKFIDTGFTLPFYKRMLNKRPTLKDLESIDPEFYNSIVWIKENNLEECGLELYFIQDMEILGKVTTHELKEGGESIRVTEENKEEYIMLLTDWRFTRGVEEQTKAFLDGFNEVAPLEWLRYFDEKELELMLCGMQEIDMSDWQKSTIYRHYTKNSKQIQWFWQVVKEMDNEKRIRLLQFVTGTCRLPVGGFAELIGSNGPQKFCIDKVGKETWLPRSHTCFNRLDLPPYKSYEQLREKLLYAIEETEGFGQE |
